Experimental data as given in paper doi:10.1101/2025.03.26.644761 (bioRxiv, 2025).
Residue numbers refer to the chain shown, from its start.

What was measured:
[1] = molecular target: the molecule itself; experiment: single molecule fluorescence
[2] = molecular target: T1, His6-YPet-mRIPK3_(379-486) (mouse, UniProt Q9QZL0 379-486); experiment: SDS semi-denaturing agarose gel electrophoresis
T1 sequence (looked up): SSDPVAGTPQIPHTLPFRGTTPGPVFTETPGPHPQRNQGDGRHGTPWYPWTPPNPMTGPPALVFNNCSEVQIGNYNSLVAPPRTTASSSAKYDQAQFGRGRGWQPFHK

[3] = molecular target: the molecule itself; experiment: Thioflavin T fluorescence + negative stain transmission electron microscopy
[4] = molecular target: T2, His6-YPet-hRIPK3_(387–518) (human, UniProt Q9Y572 387-518); experiment: Two-Colour Coincidence Detection spectroscopy
T2 sequence (looked up): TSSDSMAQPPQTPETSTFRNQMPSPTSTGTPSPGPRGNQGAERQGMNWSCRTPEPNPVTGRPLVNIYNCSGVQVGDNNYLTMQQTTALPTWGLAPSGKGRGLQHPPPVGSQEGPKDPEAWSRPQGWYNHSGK

[5] = molecular target: the molecule itself; experiment: solid-state NMR of homomeric fibrils

B1: His6-M45_(1–90)-mCherry, wild type (domain or fragment, murine cytomegalovirus (MCMV), UniProt Q06A28 1-90, looked up)
chain: MDRQPKVYSDPDNGFFFLDVPMPDDGQGGQQTATTAAGGAFGVGGGHSVPYVRIMNGVSGIQIGNHNAMSIASCWSPSYTDRRRRSYPKT
B1: binds [1]; binds [2].

B2: His6-M45_(1–90)-mCherry, AAAA mutant A (domain or fragment, murine cytomegalovirus (MCMV), UniProt Q06A28 1-90, looked up)
chain: B1 chain with R53A, I54A, M55A, N56A
B2: binds [3]; binds [4].

B3: His6-M45_(1–90)-mCherry, AAAA mutant B (domain or fragment, murine cytomegalovirus (MCMV), UniProt Q06A28 1-90, looked up)
chain: B1 chain with G57A, V58A, S59A, G60A
B3: binds [1]; binds [4].

B4: His6-M45_(1–90)-mCherry, AAAA mutant C (domain or fragment, murine cytomegalovirus (MCMV), UniProt Q06A28 1-90, looked up)
chain: B1 chain with I61A, Q62A, I63A, G64A
B4: binds [4].

B5: His6-M45_(1–90)-mCherry, AAAA mutant D (domain or fragment, murine cytomegalovirus (MCMV), UniProt Q06A28 1-90, looked up)
chain: B1 chain with N65A, H66A, N67A
B5: binds [4].

B6: His6-M45_(1–90)-mCherry, AAAA mutant E (domain or fragment, murine cytomegalovirus (MCMV), UniProt Q06A28 1-90, looked up)
chain: B1 chain with M69A, S70A, I71A
B6: binds [4].

B7: M45_(1-90), RHIM-containing N-terminal region of MCMV M45 (viral inhibitor of RIP activation), tag removed (domain or fragment, murine cytomegalovirus (MCMV), UniProt Q06A28 1-90, looked up)
chain: B1 chain
B7: binds [5].

B8: RIPK3_(387-518), RHIM-containing region of human RIPK3, tag removed (domain or fragment, UniProt Q9Y572 387-518, looked up)
chain: T2 sequence (looked up)
B8: binds [5].
